From patent US20260250325A1, “Antiviral Polypeptide Membrane Fusion Inhibitor, and Preparation Method and Application Thereof” (priority 2025, published 2026) come the findings set out here.

Where a SMILES comes first, the peptide text is derived from it. [ ]: non-standard residue; d: D form. The star is where a group is joined. ξ: configuration not given here. Succinyl(4-O-cholesteryl) = CC(C)CCC[C@@H](C)[C@H]1CC[C@H]2[C@@H]3CC=C4C[C@@H](OC(=O)CCC(=O)*)CC[C@]4(C)[C@H]3CC[C@]12C; ξD = NC(CC(=O)O)C(=O)O

The test system of data set [1] is RSV A2 virus strain. In words: Mouse RSV A2 challenge protection, lung viral titer by plaque method. Format: in vivo, BALB/c mice. The method, then:
Female BALB/c mice were from Shanghai Yishang Biotechnology Co., Ltd. HEp- 2 were from the ATCC, with a catalog number CCL-23. The cells were cultured in a DMEM medium solution in which 10% (v/v) fetal bovine serum and 1% penicillin and streptomycin were added. The RSV A2 virus strain was from the ATCC, with a catalog number VR-1540.
Eight-week-old female BALB/c mice were grouped based on body weight (n=6). All animals were intranasally challenged with RSV on Day 0 at a challenge dosage of 1×10^6 pfu (20 μL) per animal. Administration began 1 h after Day 0 challenge; the polypeptide sample, positive control, and solvent control were administered via tracheal nebulization once daily for 5 consecutive days (see Table 3 below for administration dosage and administration frequency). Lung tissue was collected from all animals 2 h after the final administration on Day 4; left lung tissue was rapidly frozen in a virus protection solution with a 10-fold volume and stored below −70° C.; and a viral titer was detected by using a plaque method.
For analysis, the lung RSV A2 virus was determined by performing a tissue homogenate viral load plaque method. In short, on the day prior to sample detection, the HEp-2 cells were inoculated into a 12-well plate (spreading density being 0.3×10^6 cells/mL, with 1000 μL of cell suspension per well) according to a standard HEp-2 cell culture operation procedure. On the day of incubation, the supernatant was taken from the tissue sample that was homogenized using a tissue homogenizer (maintaining a low-temperature environment), and the supernatant was taken after centrifugation. The tissue homogenate sample was diluted with serum-free DMEM, and inoculated into a 12-well plate at a final volume of 400 μL. After 2 h of incubation, the homogenate supernatant was discarded, and 1.5 mL of a covering layer (cell culture medium containing 1% soft agar) was added to each well and cultured in the incubator for approximately 72 h. The covering layer was discarded, the cells were fixed, blocking was performed by using a blocking solution, dyeing was performed with HRP-RSVG, development and air drying were terminated with pure water. Colored spots on the well plate were counted by using a fluorescent (enzyme-linked) immunoassay spot analyzer, and the viral titer was expressed as a plaque-forming unit per gram of tissue (PFU/g). The viral titer was calculated as an arithmetic mean±standard error of all animals in a group.
One hour after RSV A2 challenge in mice, compounds 13, 14, 17, 19, 20, 21, 26, 27, 28, and 40 were administered via tracheal nebulization once daily for 5 consecutive days; and 2 h after the final administration, lung tissue was collected from all groups for viral plaque detection, and results were shown in Table 3.

Data set [2] deals with RSV A2 virus strain. In words: Cotton rat RSV A2 challenge protection, lung nucleic acid load by RT-qPCR. Format: in vivo. The following applies: cotton rats. An excerpt:
Female cotton rats were from Shanghai Yishang Biotechnology Co., Ltd. The RSV A2 virus strain was from the ATCC, with a catalog number VR-1540. RT-qPCR primer+probe primer were supplied by Qingke Biotechnology Co., Ltd, with batch number TSP20241227-025-00187. The RT-qPCR standard was provided by Vazyme, with batch number 20241008.
Female cotton rats (6-8 weeks old) were grouped based on body weight (n=5). All animals were intranasally challenged with RSV on Day 0 at a challenge dosage of […] pfu (50 μL) per animal. Administration began 1 h after Day 0 challenge; the polypeptide sample, positive control, and solvent control were administered via tracheal nebulization once daily for 5 consecutive days. Lung tissue was collected from all animals 2 h after the final administration on Day 4. Left lung tissue (including partial trachea) was rapidly frozen in a virus protection solution with a 10-fold volume and stored below −70° C.; and the viral titer was detected with RT-qPCR.
First, sample homogenization and lung tissue RNA extraction were performed, and the supernatant was taken from the tissue sample that was homogenized using a tissue homogenizer (maintaining a low-temperature environment). The approximately 100 μL of the homogenate supernatant was taken, and total tissue RNA was extracted by using a VeZol reagent-chloroform-water phase-magnetic bead method, and dissolved in RNase-free water. The RT-qPCR reaction system was prepared as follows: a one-step RT-qPCR reaction system was prepared by using an RNA template, a probe, a primer pair, an RT-qPCR buffer, and the RNase-free water; each sample was tested in duplicated wells, with each well containing 20 μL of the one-step RT-qPCR reaction system; a quantitative standard curve well (RSV A2 N gene full-length plasmid), a positive quality control well, and a negative quality control well were arranged at the same time. Then, amplification programs were set according to reverse transcription, pre-denaturation, and cyclic amplification, and amplification data was collected by using a real-time fluorescence quantification PCR instrument, and a mean CT value for duplicated wells was calculated. The CT value from the test results for each sample was substituted into a quantitative standard curve to calculate a copy number. A calculation formula for RSV viral load (copy number/gram of lung tissue) was: sample viral load (copy number/gram of lung tissue)=copy number/relative tissue input (g).
One hour after RSV A2 challenge in cotton rats, compounds 13, 14, 17, 19, 20, 21, 26, 27, 28, and 40 were administered via tracheal nebulization once daily for 5 consecutive days; and 2 h after the final administration, lung tissue was collected from all groups for viral titer detection, and results were shown in Table 4.
In general terms: In qPCR the cycle at which signal appears reflects the starting amount.

Data set [3] can be described thus: Cytotoxicity test in HEp-2 cells (CCK8 cell viability). In kind it is cell-based. The following applies: human; HEp-2 cells, CCK8, 1 day; read-out: CC50. The method in brief: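 Compound dilutions (final DMSO 0.5%) were applied for 1 day to HEp-2 cells plated at 30,000 per well the day before. CCK8 signal gave survival relative to cell and medium controls, and a four-parameter log(inhibitor)-response fit yielded CC50.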

Substrate in data set [4]: F protein of hMPV virus strain A2 (human metapneumovirus, strain A2)
The data set can be described thus: cell-based or functional assay.

Substrate in data set [5]: F protein of hPIV Type 3 (hPIV3 C243) (human parainfluenza virus type 3, strain C243)
The data set can be described thus: cell-based or functional assay.

The target of data set [6] is T1, F protein of RSV A long virus strain (respiratory syncytial virus, RSV A long virus strain), P12568.
T1 chain: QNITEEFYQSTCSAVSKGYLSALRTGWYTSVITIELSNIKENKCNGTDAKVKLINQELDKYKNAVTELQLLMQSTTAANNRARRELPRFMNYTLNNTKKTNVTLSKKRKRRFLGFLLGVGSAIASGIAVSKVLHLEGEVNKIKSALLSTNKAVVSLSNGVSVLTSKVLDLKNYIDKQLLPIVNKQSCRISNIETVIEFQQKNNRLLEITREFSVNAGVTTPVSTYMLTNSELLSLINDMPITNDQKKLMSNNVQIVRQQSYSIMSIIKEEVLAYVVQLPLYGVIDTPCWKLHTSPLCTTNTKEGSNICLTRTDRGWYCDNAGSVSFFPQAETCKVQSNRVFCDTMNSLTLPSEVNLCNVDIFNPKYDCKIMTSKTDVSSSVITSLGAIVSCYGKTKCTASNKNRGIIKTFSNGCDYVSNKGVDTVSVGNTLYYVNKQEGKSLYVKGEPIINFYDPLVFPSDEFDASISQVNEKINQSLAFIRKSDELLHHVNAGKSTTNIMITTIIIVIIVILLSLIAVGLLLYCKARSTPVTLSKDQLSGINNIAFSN
In words: cell-based or functional assay.

Substrate in data set [7]: F protein of hMPV virus strain B1 (human metapneumovirus, strain B1)
The data set can be described thus: cell-based or functional assay.

In data set [8] the target is hPIV-N51 (139-189) (human parainfluenza virus (hPIV)).
hPIV-N51 (139-189) (human parainfluenza virus (hPIV)), sequence (P06828 139-189): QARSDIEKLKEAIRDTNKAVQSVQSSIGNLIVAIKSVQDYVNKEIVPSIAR

Take `CC[C@H](C)[C@H](NC(=O)[C@H](CCCCN)NC(=O)[C@H](CCCCN)NC(=O)[C@H](CC(C)C)NC(=O)[C@H](CO)NC(=O)[C@H](CCC(=O)O)NC(=O)[C@H](CCC(=O)O)NC(=O)[C@@H](NC(=O)[C@H](CCCCN)NC(=O)[C@H](CCCCN)NC(=O)[C@H](CC(N)=O)NC(=O)[C@@H](NC(=O)[C@H](CCC(=O)O)NC(=O)[C@H](CCC(=O)O)NC(=O)[C@@H](NC(=O)[C@H](CCCCN)NC(=O)[C@H](CCCCN)NC(=O)[C@H](CC(=O)O)NC(=O)[C@H](Cc1ccccc1)NC(=O)[C@H](CCC(=O)O)NC(=O)C(CC(=O)O)NC(C)=O)[C@@H](C)CC)C(C)C)[C@@H](C)CC)C(=O)N[C@@H](CCC(=O)O)C(=O)N[C@@H](CCC(=O)O)C(=O)N[C@@H](CO)C(=O)N[C@@H](CC(=O)O)C(=O)N[C@@H](CCCCN)C(=O)N[C@@H](CCCCN)C(=O)N[C@@H](CC(C)C)C(=O)N[C@@H](CCC(=O)O)C(=O)N[C@@H](CCC(=O)O)C(=O)N[C@H](C(=O)N[C@@H](CC(N)=O)C(=O)N[C@@H](CCC(=O)O)C(=O)N[C@@H](C)C(=O)N[C@@H](C)C(=O)N[C@@H](C)C(=O)N[C@@H](CCCCN)C(=O)N[C@@H](CCCCNC(=O)CCC(=O)O[C@H]1CC[C@@]2(C)C(=CC[C@H]3[C@@H]4CC[C@H]([C@H](C)CCCC(C)C)[C@@]4(C)CC[C@@H]32)C1)C(N)=O)C(C)C` (stereo partly shown) [Compound 14] (Ac-[ξD]EFDKKIEEVNKKIEESLKKIEESDKKLEEVNEAAAKK(Succinyl(4-O-cholesteryl))-NH2): the “Mean (PFU/g lung)” value in the data set with RSV A2 virus strain [1] (BALB/c mice, tracheal nebulization 1 mg/kg QD for 5 days, lung collected 2 h after final administration on Day 4) is recorded as 4820 PFU/g lung. The “effect on viral titer in lung tissue (in words)” value is listed as “significantly reduce the viral titer in lung tissue” in the data set with RSV A2 virus strain [1] (mice, tracheal nebulization once daily for 5 days) and “significantly reduce the viral titer in lung tissue” in the data set on RSV A2 virus strain [2] (tracheal nebulization once daily for 5 days). For the same molecule, in the data set on RSV A2 virus strain [2] (tracheal nebulization 1 mg/kg QD for 5 days, lung collected 2 h after final administration on Day 4), the “Nucleic acid load RT-qPCR detection results Log10 mean (copy number/gram of lung tissue)” value is recorded as 7.68 Log10 copy number/gram of lung. Further, the CC50 at 1 day in data set [3] came to 9600 nM.

In the case of WDEFDKKIEEVNKKIEESLKKIEESDKKLEEVNEAAAKK (modifications not checked) [Compound 41], the EC50 (nM), plaque reduction, hMPV A2, Vero cells in data set [4] came to 11.7 nM. Also, the EC50 (nM), plaque reduction, hPIV3 C243, LLC-MK2 cells in data set [5] is 71.1 nM. In data set [6], the IC50/nM, Cell fusion inhibition activity (plaque reduction, RSV A long strain, HEp-2 cells) stood at 14.8 nM. In addition, the EC50 (nM), plaque reduction, hMPV B1, Vero cells in data set [7] came to 9.46 nM. The same molecule came in with a Kd in data set [8] of 492 nM.

As to WDEFDKKIEEVNKKIEESLKKIEESDKKLEEVNAEAAAKK (modifications not checked) [Compound 40], in data set [4], the EC50 (nM), plaque reduction, hMPV A2, Vero cells came out at 13.8 nM. For the same molecule, the EC50 (nM), plaque reduction, hPIV3 C243, LLC-MK2 cells in data set [5] was 22.2 nM. For the same molecule, the IC50/nM, Cell fusion inhibition activity (plaque reduction, RSV A long strain, HEp-2 cells) in data set [6] is 11.7 nM. In addition, in data set [7], the EC50 (nM), plaque reduction, hMPV B1, Vero cells came to 7.47 nM. This molecule also returned a Kd in data set [8] of 2270 nM.

FDASIEEVNRRIEESLRRIEESDRRLEEVNAEAAAKK (modifications not checked) [Compound 42]: the EC50 (nM), plaque reduction, hMPV A2, Vero cells in data set [4] came to 26.1 nM. The EC50 (nM), plaque reduction, hPIV3 C243, LLC-MK2 cells in data set [5] amounted to 18.9 nM. For the same molecule, the IC50/nM, Cell fusion inhibition activity (plaque reduction, RSV A long strain, HEp-2 cells) in data set [6] was 11.8 nM. In addition, the EC50 (nM), plaque reduction, hMPV B1, Vero cells in data set [7] amounted to 10.1 nM. Also, the Kd in data set [8] is 485 nM.

For WDEFDASIEEVNRRIEESLRRIEESDRRLEEVEAAAKK (modifications not checked) [Compound 43], in data set [4], the EC50 (nM), plaque reduction, hMPV A2, Vero cells came out at 16.8 nM. Further, the EC50 (nM), plaque reduction, hPIV3 C243, LLC-MK2 cells in data set [5] turned out to be 16.1 nM. The IC50/nM, Cell fusion inhibition activity (plaque reduction, RSV A long strain, HEp-2 cells) in data set [6] came out at 18.3 nM. For the same molecule, the EC50 (nM), plaque reduction, hMPV B1, Vero cells in data set [7] amounted to 8.01 nM. This molecule also yielded an equilibrium dissociation constant (Kd) in data set [8] of 5720 nM.

A word on the CC50: it is the concentration at which the toxic effect on the cells reaches its halfway point. The Kd is the free concentration of one partner at which half of the binding sites on the other are occupied at equilibrium, for simple one-to-one binding. A low value points to a tighter complex.
